Measurements taken from patent publication US20130236430A1, “PROLIFERATION, SEPARATION AND TRANSPLANTATION OF INHIBITORY NEURON PROGENITORS AND PROLIFERATION PROMOTING SUBSTANCES FOR THE PROGENITORS” (priority 2010, published 2013).

What was measured:
[1] = Infusion of peroxidase tracer protein into the cistern magna, distribution visualized by DAB reaction; type: in vivo; details: infused into cistern magna of mouse, formalin fixing after 30 minutes; FIG. 12
Text: In the case of the microperoxidase being not able to penetrate, a barrier corresponding to the blood brain barrier is judged to be present.
It has already discussed that the most of the inhibitory neuron progenitors were distributed to the proximity to the brain surface or the subventricular zone. In order to establish a technique for delivering Activin A to the proximity to the brain surface or the subventricular zone, a protein which can readily be detected was employed instead of Activin A itself in a monitoring experiment. The protein employed was a microperoxidase which was a peptide obtained by enzymatic degradation of cytochrome C and purification of a heme-containing moiety. A caudal part of a mouse cerebellum has a large subarachnoid cavity referred to as the cistern magna, into which the microperoxidase was infused, and after 30 minutes the formalin fixing was conducted and the enzyme distribution was visualized by a color development via DAB reaction (peroxidase reaction). It is defined that when the microperoxidase cannot permeate then a barrier corresponding to the blood brain barrier exists. […] It means that there was no barrier corresponding to BBB between the subarachnoid cavity and the brain parenchyma (the boundary is the pia matter) or between the ventricle and the brain parenchyma (the boundary is a ventricular zone). […]

[2] = test system: inhibitory neuron progenitors in the brain; assay: In vivo infusion of Activin A solution into the brain of juvenile GAD67-GFP mouse, EdU labelling, histological observation; details: P3 GAD67-GFP mouse; 1 μl of 1 μg/ml Activin A solution, one side; EdU i.p. after 30 minutes; examined after 1 week; FIG. 11
Procedure: Thereafter, the animal was maintained for 1 week, anesthetized, fixed, and examined histologically.
Also in order to verify the in vivo effect of Activin A, an Activin A solution was injected directly into the brain of a 3-day old (P3) juvenile mouse. Thirty minutes after this addition, EdU was injected intraperitoneally. […] Then the subsequent issue is a method for delivering Activin A to the inhibitory neuron progenitors inside the brain. Such a method is preferably a method avoiding any damage to the brain, such as penetration of an injection needle.

[3] = test system: inhibitory neuron progenitors (GFP positive cells from GAD67-GFP P0 mouse cerebral cortex); assay: BrdU uptake into DNA of sorted GFP positive cells cultured in neural stem cell culture medium with or without Activin A; type: cell-based; details: neural stem cell culture medium with (M+A) or without (M) Activin A at 20 ng/ml; FIG. 10
Procedure: The cerebral cortex of a GAD67-GFP P0 mouse was taken out, treated with a protease (trypsin) to disperse the cells, which were subjected to a cell sorter to obtain GFP positive cells. A neural stem cell culture medium (Neurobasal medium +5% B27 supplement, 20 ng/ml bFGF, 20 ng/ml EGF) was combined with a E18 mouse fetal brain tissue and cultured overnight for conditioning, thereafter the cells were removed and then 5 μg/ml of BrdU was added and the GFP positive cells taken out by the cell sorter were cultured for 2 to 7 days and then fixed. As a result, a part of the GFP positive GABAergic neuron progenitors was confirmed to uptake BrdU in a conditioned neural stem cell culture medium to undergo a cell division (FIG. 9). When the GFP positive cells were cultured in a neural stem cell culture medium which had not been conditioned with the fetal brain tissue, the image as of FIG. 9 was not obtained.
The proliferation may be successful in the neural stem cell culture medium supplemented with essential proliferation factors, thus establishing an essential proliferation factor detection system.

**Q.** Which “distribution from the cistern via the ventricles to the lateral ventricle and into the brain parenchyma” value [1] does the source give for microperoxidase here?
**A.** migrated from the surface of the lateral ventricle to the brain parenchyma

**Q.** And the “permeation from the subarachnoid cavity through the pia matter into the brain parenchyma” value [1]?
**A.** permeated from the pia matter into the brain parenchyma

B1: Activin A (protein, UniProt P08476 311-426, looked up)
Inhibin beta A chain: GLECDGKVNICCKKQFFVSFKDIGWNDWIIAPSGYHANYCEGECPSHIAGTSGSSLSFHSTVINHYRMRGHSPFANLKSCCVPTKLRPMSMLYYDDGQNIIKKDIQNMIVEECGCS
modifications: Inhibin beta A chain
**Q.** Which results are given for B1?
**A.** EdU positive cells (considered pia progenitors) in the pia matter on the infusion side [2]: a large number; number of GFP/EdU double-stained inhibitory neurons in the infused hemisphere compared with the opposite hemisphere [2]: significantly larger number; uptake of BrdU into the DNA (increase in the DNA amount associated with cell division) [3]: increase in the DNA amount associated with the cell division was evident
